Test results taken from article PMC3282623, “High-pressure-induced water penetration into 3-isopropylmalate dehydrogenase” (Acta Crystallographica Section D: Biological Crystallography, 2012).

Biological target: the molecule itself
Assay: crystal structure; crystals of the SoIPMDH-IPM complex, space group C2, room temperature, in a glass capillary (0.1 MPa) or a diamond anvil cell (160, 340, 410, 580 and 650 MPa); 18% PEG 3350, 100 mM Na HEPES pH 7.0, 200 mM calcium acetate, 10 mM magnesium chloride, 10 mM IPM

B1: 3-isopropylmalate dehydrogenase (IPMDH) from Shewanella oneidensis MR-1 (enzyme)
chain: SYQIAVLAGDGIGPEVMAEARKVLKAVEARFGLNIEYTEYDVGGIAIDNHGCPLPEATLKGCEAADAILFGSVGGPKWEKLPPNEQPERGALLPLRGHFELFCNLRPAKLHDGLEHMSPLRSDISARGFDVLCVRELTGGIYFGKPKGRQGEGESEEAFDTMRYSRREISRIARIAFEAARGRRKKVTSVDKANVLACSVLWRQVVEEVAVDFPDVELEHIYIDNATMQLLRRPDEFDVMLCSNLFGDILSDEIAMLTGSMGLLSSASMNSTGFGLFEPAGGSAPDIAGKGIANPIAQILSAALMLRHSLKQEEAASAIERAVTKALNSGYLTGELLSSDQRHKAKTTVQMGDFIADAVKAGV
notes: 3-isopropylmalate dehydrogenase, product of the leuB gene of Shewanella oneidensis MR-1, subcloned into the BamHI/HindIII sites of pQE-80L (vector pQE-MR1-leuB); Crystallised in complex with its substrate 3-isopropylmalate (IPM) and a divalent cation; the two subunits of the dimer are related by the crystallographic twofold axis; also called SoIPMDH
  stoichiometry N: 2
